From the supplement of paper PMC7125110
± gives the standard error. For some of these results: Variants at the floor of the assay were thinned out.

B1: glmS ribozyme (parent)
chain: AUAAAAGCGCCAGAACUACAGAAAUGUAGUUGACGAGGAGGAGGUUUAUCGAAUUUUCGGCGGAUGCCUCCAAA

Assays:
Conditions in all cases: with glucosamine-6-phosphate
glucosamine-6-phosphate [1] = variants of: B1; assay: kcat; higher = faster cleavage; RNA array
Procedure, shortened: (§1)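 On sequenced MiSeq chips, barcoded ribozyme variants were made in situ by E. coli RNA polymerase and followed at 37 °C through a hybridised Cy3 probe. Glucosamine-6-phosphate was flowed in at 40 μM to 10 mM in HEPES/KCl/Mg(OAc)2 buffer. Exponential fits to normalised per-tile medians gave kobs, and weighted Michaelis–Menten fits gave kcat and KM.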

glucosamine-6-phosphate [2] = variants of: B1; assay: KM; higher = weaker cofactor use; RNA array
Procedure, shortened: as §1

glucosamine-6-phosphate [3] = variants of: B1; assay: self-cleavage kobs at 40 uM GlcN6P; higher = faster cleavage; RNA array
Procedure, shortened: as §1

glucosamine-6-phosphate [4] = variants of: B1; assay: self-cleavage kobs at 160 uM GlcN6P; higher = faster cleavage; RNA array
Procedure, shortened: as §1

glucosamine-6-phosphate [5] = variants of: B1; assay: self-cleavage kobs at 640 uM GlcN6P; higher = faster cleavage; RNA array
Procedure, shortened: as §1

glucosamine-6-phosphate [6] = variants of: B1; assay: self-cleavage kobs at 2500 uM GlcN6P; higher = faster cleavage; RNA array
Procedure, shortened: as §1

glucosamine-6-phosphate [7] = variants of: B1; assay: self-cleavage kobs at 10000 uM GlcN6P; higher = faster cleavage; RNA array
Procedure, shortened: as §1

Variant | kcat (glucosamine-6-phosphate [1]) | KM (glucosamine-6-phosphate [2]) | self-cleavage kobs at 40 uM GlcN6P (glucosamine-6-phosphate [3]) | self-cleavage kobs at 160 uM GlcN6P (glucosamine-6-phosphate [4]) | self-cleavage kobs at 640 uM GlcN6P (glucosamine-6-phosphate [5]) | self-cleavage kobs at 2500 uM GlcN6P (glucosamine-6-phosphate [6]) | self-cleavage kobs at 10000 uM GlcN6P (glucosamine-6-phosphate [7])
U46G C67A | 0.00184 ± 0.00032 s⁻¹ | 818 ± 220 µM | 0.000105 ± 1.1e-05 s⁻¹ | 0.000224 ± 3.9e-05 s⁻¹ | 0.000783 ± 0.0001 s⁻¹ | 0.00146 ± 0.00022 s⁻¹ | 0.00173 ± 0.00021 s⁻¹
C50A G60C | 1.48e-05 ± 7e-06 s⁻¹ |  |  |  |  |  | 
C16G C68G | 1.82e-05 ± 5.5e-06 s⁻¹ |  |  |  |  |  | 
G63C C70A | 1.89e-05 ± 5.1e-06 s⁻¹ |  |  |  |  |  | 
A6G A14U | 0.000128 ± 4.9e-06 s⁻¹ | 1370 ± 180 µM |  |  | 3.84e-05 ± 1e-05 s⁻¹ | 8.77e-05 ± 1.3e-05 s⁻¹ | 0.000111 ± 1.1e-05 s⁻¹
A6G A14C | 0.000105 ± 2.8e-06 s⁻¹ | 2620 ± 210 µM |  |  |  | 5.24e-05 ± 8.1e-06 s⁻¹ | 8.29e-05 ± 7.7e-06 s⁻¹
C58U C68U | 6.04e-05 ± 7.7e-06 s⁻¹ | 2460 ± 1000 µM |  |  |  | 2.71e-05 ± 8.5e-06 s⁻¹ | 4.92e-05 ± 7.3e-06 s⁻¹
C67A C68G | 4.23e-05 ± 1e-05 s⁻¹ |  |  | 4.13e-05 ± 1.5e-05 s⁻¹ | 5.98e-05 ± 1.7e-05 s⁻¹ | 5.59e-05 ± 1.3e-05 s⁻¹ | 2.51e-05 ± 1.1e-05 s⁻¹
G44U U47A | 0.00016 ± 1.2e-05 s⁻¹ | 1850 ± 460 µM |  |  | 4.97e-05 ± 2.4e-05 s⁻¹ | 9.01e-05 ± 1.7e-05 s⁻¹ | 0.000136 ± 1.6e-05 s⁻¹
G35A C50G U69A | 0.000277 ± 5.3e-05 s⁻¹ |  | 0.000149 ± 3.4e-05 s⁻¹ | 0.000465 ± 0.00015 s⁻¹ | 0.000501 ± 0.00021 s⁻¹ | 0.000206 ± 7.8e-05 s⁻¹ | 0.000278 ± 5.3e-05 s⁻¹
C11A A12C | 0.00026 ± 5.5e-05 s⁻¹ | 900 ± 380 µM |  | 4.82e-05 ± 1.5e-05 s⁻¹ | 0.000103 ± 1.8e-05 s⁻¹ | 0.000182 ± 3.2e-05 s⁻¹ | 0.000406 ± 0.00015 s⁻¹
U57G C71G | 2.02e-05 ± 3.8e-06 s⁻¹ |  |  |  |  |  | 
A42C C50A | < 1e-05 s⁻¹ |  | < 1e-05 s⁻¹ |  |  | < 1e-05 s⁻¹ | < 1e-05 s⁻¹
A15G A48U | 0.000853 ± 8.9e-05 s⁻¹ | 3930 ± 590 µM |  | 3.92e-05 ± 9.3e-06 s⁻¹ | 0.000113 ± 1.4e-05 s⁻¹ | 0.000349 ± 4.7e-05 s⁻¹ | 0.000604 ± 8.6e-05 s⁻¹
C16U G32C A52G | 4.34e-05 ± 1.5e-06 s⁻¹ | 3600 ± 420 µM |  |  |  |  | 3.19e-05 ± 1.3e-05 s⁻¹
C16A U30A | 0.00139 ± 0.00047 s⁻¹ |  | 3.95e-05 ± 8.3e-06 s⁻¹ | 0.000164 ± 3e-05 s⁻¹ | 0.000316 ± 5.7e-05 s⁻¹ | 0.00154 ± 0.00022 s⁻¹ | 0.00109 ± 0.00017 s⁻¹
U45G G66U | 0.0036 ± 0.00029 s⁻¹ | 4540 ± 530 µM | 3.62e-05 ± 1.2e-05 s⁻¹ | 0.00012 ± 2.8e-05 s⁻¹ | 0.00042 ± 7.6e-05 s⁻¹ | 0.0014 ± 0.00027 s⁻¹ | 0.00245 ± 0.00032 s⁻¹
C61A A64U C71G | 1.67e-05 ± 3.2e-06 s⁻¹ |  |  |  |  |  | 
